Columns and labels:
hCD22.mmH = target: T1, hCD22.mmH (human, UniProt P20273 20-687); assay: SPR (Biacore), mAb captured by anti-human Fc, hCD22.mmH injected, 25°C
T1 construct: also called REGN5140; recombinant human CD22
Procedure: (§1) All of the binding kinetics experiments were performed at 25° C. Kinetic association (kₐ) and dissociation (kd) rate constants were determined by fitting the real-time sensorgrams to a 1:1 binding model using Scrubber 2.0c curve fitting software.

[1] = target: T2, Monkey CD22.mmH (EHH59463.1) (monkey (cyno)); assay: SPR (Biacore), mAb captured by anti-human Fc, monkey CD22.mmH (EHH59463.1) injected, 25°C
T2 construct: also called REGN5281; mfCD22.mmH
T2 chain: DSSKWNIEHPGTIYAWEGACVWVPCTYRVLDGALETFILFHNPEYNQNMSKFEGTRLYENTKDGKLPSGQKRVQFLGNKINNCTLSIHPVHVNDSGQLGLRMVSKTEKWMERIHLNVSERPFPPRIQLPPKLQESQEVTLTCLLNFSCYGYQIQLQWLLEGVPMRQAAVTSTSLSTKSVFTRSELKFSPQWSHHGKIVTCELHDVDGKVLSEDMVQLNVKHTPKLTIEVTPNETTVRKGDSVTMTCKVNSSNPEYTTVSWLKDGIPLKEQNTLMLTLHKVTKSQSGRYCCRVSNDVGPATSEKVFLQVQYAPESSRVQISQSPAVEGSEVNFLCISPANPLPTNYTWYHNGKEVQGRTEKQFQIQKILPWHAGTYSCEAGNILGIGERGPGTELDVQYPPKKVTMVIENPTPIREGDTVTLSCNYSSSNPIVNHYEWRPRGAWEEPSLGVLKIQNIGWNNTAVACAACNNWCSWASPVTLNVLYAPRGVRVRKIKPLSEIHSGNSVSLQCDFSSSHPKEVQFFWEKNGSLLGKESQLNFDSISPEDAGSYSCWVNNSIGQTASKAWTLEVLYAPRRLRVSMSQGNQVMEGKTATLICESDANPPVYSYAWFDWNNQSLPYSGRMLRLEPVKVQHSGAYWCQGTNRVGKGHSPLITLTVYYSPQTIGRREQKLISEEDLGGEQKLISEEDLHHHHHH
Procedure: as §1

[2] = target: T3, Monkey CD22.mmH (XP_005588899.1) (monkey (cyno)); assay: SPR (Biacore), mAb captured by anti-human Fc, monkey CD22.mmH (XP_005588899.1) injected, 25°C
T3 construct: also called REGN5280; mfCD22.mmH
T3 chain: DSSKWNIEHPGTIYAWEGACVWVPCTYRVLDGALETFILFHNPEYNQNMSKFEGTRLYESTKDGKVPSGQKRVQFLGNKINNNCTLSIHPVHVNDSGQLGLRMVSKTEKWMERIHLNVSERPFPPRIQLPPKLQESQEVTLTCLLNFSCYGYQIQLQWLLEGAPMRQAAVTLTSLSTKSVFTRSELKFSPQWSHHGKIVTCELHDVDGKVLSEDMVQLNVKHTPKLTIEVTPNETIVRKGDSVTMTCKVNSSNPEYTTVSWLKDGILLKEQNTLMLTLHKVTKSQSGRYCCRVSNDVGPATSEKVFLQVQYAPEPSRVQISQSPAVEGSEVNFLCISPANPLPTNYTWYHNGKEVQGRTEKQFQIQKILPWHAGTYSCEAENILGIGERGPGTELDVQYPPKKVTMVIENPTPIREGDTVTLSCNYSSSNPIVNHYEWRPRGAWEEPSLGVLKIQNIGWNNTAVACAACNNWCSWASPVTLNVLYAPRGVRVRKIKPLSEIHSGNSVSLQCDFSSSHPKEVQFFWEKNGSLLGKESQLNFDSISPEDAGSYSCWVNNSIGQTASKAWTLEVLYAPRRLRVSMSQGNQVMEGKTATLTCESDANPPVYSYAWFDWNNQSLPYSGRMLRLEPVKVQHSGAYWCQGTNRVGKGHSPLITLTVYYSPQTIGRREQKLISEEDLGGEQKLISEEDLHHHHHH
Procedure: as §1

human CD22 on cells [3] = target: T4, human CD22 on cells (human, UniProt P20273 20-847); assay: flow cytometry on Nalm6 cells (human CD22)
T4 construct: whole, on cells; also called hCD22; CD22 on Nalm6 cells
Procedure: (§2) Flow cytometric analysis was utilized to determine binding of CD22×CD28 bispecific antibodies to human CD22 expressing Nalm6 cells and human CD28 expressing Jurkat cells and to cynomolgus monkey T (CD28+) and B (CD22+) cells. […] After incubation, the cells were washed twice with cold PBS containing 1% filtered FBS and a PE-conjugated anti-human secondary antibody was added to the cells and incubated for an additional 30 minutes. An additional phenotyping antibody cocktail (anti-CD2, anti-CD20, anti-CD16, anti-CD14) was added to wells with cynomolgus monkey PBCMs. Wells containing no antibody or secondary only were used as a control.
(§3) After incubation with secondary antibody, cells were washed, re-suspended in 200 μL cold PBS containing 1% filtered FBS and analyzed by flow cytometry on a BD LSR_Fortessa. Cynomolgus monkey T cells were identified as CD2+/CD16− and B cells as CD20+. EC₅₀ values for FACS binding were calculated using 4-parameter non-linear regression analysis in Prism software.

hCD28.mmH = target: T5, hCD28.mmH (human); assay: SPR (Biacore T-200), mAb captured by anti-human Fc, hCD28.mmH injected, 25°C
T5 construct: also called human CD28 with a C-terminal myc.myc hexahistidine tag
Procedure: as §1

[4] = target: T6, human CD20 on HEK293/hCD20 cells (human, UniProt P11836 1-297); assay: flow cytometry on HEK293/hCD20 cells (negative for CD22 and CD28), geometric mean MFI of APC
T6 construct: whole, on cells; Used as a cell line negative for CD28 and CD22; also called negative cell line for CD28 and CD22
T6 sequence (looked up): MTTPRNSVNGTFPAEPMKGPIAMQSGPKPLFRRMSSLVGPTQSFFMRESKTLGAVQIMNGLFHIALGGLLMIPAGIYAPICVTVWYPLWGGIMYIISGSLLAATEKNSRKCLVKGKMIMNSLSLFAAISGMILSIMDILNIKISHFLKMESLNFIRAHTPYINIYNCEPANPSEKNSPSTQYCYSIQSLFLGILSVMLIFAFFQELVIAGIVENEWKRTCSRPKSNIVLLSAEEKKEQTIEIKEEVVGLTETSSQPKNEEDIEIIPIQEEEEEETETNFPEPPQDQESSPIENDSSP
Procedure: (§4) Briefly, human CD4+ T-cells, HEK293/hCD20, HEK293/hCD20/hCD22 and Raji/CD80 and CD86 negative cells were resuspended in staining buffer containing D-PBS+2% FBS. […] A negative control sample was included containing no antibody. Cells were washed once with cold staining buffer and incubated for 30-45 minutes with Allophycocyanin (APC) labeled anti-human secondary antibody. After incubation, cells were washed once with cold D-PBS buffer without FBS and incubated with LIVE/DEAD Fixable Green Dead Cell Stain (Invitrogen) according to manufacturer's instructions to discriminate between live and dead cells. Cells were then fixed in BD Cytofix Buffer according to manufacturer's instructions, washed, re-suspended in staining buffer, and analyzed by flow cytometry on an iQue Screener flow cytometer. For EC₅₀ determinations, geometric mean fluorescence intensity (MFI) values were analyzed using a four parameter logistic equation over a 9-point response curve using GraphPad Prism. Fold binding was calculated using the following equation:

human CD22 [5] = target: T7, human CD22 (human, UniProt P20273 20-847); assay: flow cytometry on HEK293/hCD20/hCD22 cells
T7 construct: whole, on cells; also called hCD22
Procedure: as §4

human CD22 [6] = target: T7, human CD22; assay: flow cytometry on Raji/CD80 and CD86 negative cells
Procedure: as §4

human CD22 on cells [7] = target: T4, human CD22 on cells; assay: flow cytometry on HEK293/hCD20/hCD22 cells, geometric mean MFI of APC
Procedure: as §4

human CD28 on cells = target: T8, human CD28 on cells (human, UniProt P10747 19-220); assay: flow cytometry on Jurkat cells (human CD28)
T8 construct: whole, on cells; also called CD28 on Jurkat cells; CD28 on human CD4+ T-cells
Procedure: as §2, §3

B1: H4sH33041P2 (antibody, V domains shown)
VH: EVQLVESGGGLVQPGGSLKLSCAASGFTFSGSDMHWVRQASGKGLEWVGRIRNQPNSYATAYAASVKGRFTISRDDSKNTAHLQMNSLKTEDTAVYFCTRQKQVVYNYHHYYGMDVWGQGTTVTVSS
VL: not shown
notes: Anti-CD22 bivalent parental monoclonal antibody; also called mAb33041P2; CD22 mAb
- 90 nM hCD22.mmH Bind (RU) (hCD22.mmH): 61.5 RU
- t½ (hCD22.mmH): 59.8 min
- Kd [1]: 59.2 nM
- t1/2 [1]: 29.6 min
- t1/2 [2]: 39.8 min

B2: REGN5837 (bispecific antibody, V domains shown)
VH 1: QVQLQESGPGLVKPSETLSLTCTVSGGSISSYYWSWIRQPPGKGLEWIGYIYYSGITHYNPSLKSRVTISVDTSKIQFSLKLSSVTAADTAVYYCARWGVRRDYYYYGMDVWGQGTTVTVSS
VH 2: EVQLVQSGAEVKKPGESLKISCKGSGYNFATYWIAWVRQMPGKGLELMGIIYPGDSETTYNPSFQGQVTISADKSISNAYLQWSSLKASDTAMYYCARVGGYCSGTSCHNWFDPWGLGTLVTVSS
VL: not shown
notes: also called anti-CD22 x anti-CD28 bispecific antibody; CD22xCD28 mAb
- EC50 (human CD22 on cells [3]): 13 nM
- 90 nM hCD22.mmH Bind (RU) (hCD22.mmH): 100 RU
- Kd (hCD22.mmH): 8.75 nM
- t½ (hCD22.mmH): 7.8 min
- 600 nM hCD28.mmH Bind (RU) (hCD28.mmH): 72.9 RU
- Kd (hCD28.mmH): 341 nM
- binding result [4]: no binding (tested: 10^-7 M)

B3: REGN5838 (bispecific antibody, V domains shown)
VH 1: B2 VH 1
VH 2: B1 VH
VL: not shown
notes: also called anti-CD22 x anti-CD28 bispecific antibody; CD22xCD28
- EC50 (human CD22 [5]): 11.4 nM
- EC50 (human CD22 [6]): 14.9 nM

B4: REGN5705 (antibody, V domains shown)
VH: B2 VH 1
VL: not shown
notes: also called CD28 mAb; parental CD28 antibody
- binding result (human CD22 on cells [7]): no binding (tested: 10^-7 M)
- 600 nM hCD28.mmH Bind (RU) (hCD28.mmH): 88.4 RU
- t1/2 (hCD28.mmH): 2.4 min
- binding result [4]: no binding (tested: 10^-7 M)

B5: H4sH33037P2 (antibody, V domains shown)
VH: B2 VH 2
VL: not shown
notes: Anti-CD22 bivalent parental monoclonal antibody; also called mAb33037P2; CD22 mAb
- 90 nM hCD22.mmH Bind (RU) (hCD22.mmH): 193 RU
- t½ (hCD22.mmH): 7.8 min
- Kd [1]: 35.6 nM
- t1/2 [1]: 4 min
- t1/2 [2]: 4.3 min

B6: REGN5838 (bispecific antibody, V domains shown)
VH 1: B2 VH 1
VH 2: B1 VH
VL: not shown
notes: as for B2
- EC50 (human CD22 on cells [3]): 18 nM
- EC50 (human CD28 on cells): 23 nM
- 90 nM hCD22.mmH Bind (RU) (hCD22.mmH): 26.7 RU
- Kd (hCD22.mmH): 14.3 nM
- t½ (hCD22.mmH): 38.2 min
- 600 nM hCD28.mmH Bind (RU) (hCD28.mmH): 77 RU
- Kd (hCD28.mmH): 404 nM
- t1/2 (hCD28.mmH): 2.3 min
- binding result [4]: no binding (tested: 10^-7 M)

From US20230174652A1 (Regeneron, published 2023)
